# Assays:
# [1] = Solubility in normal saline and phosphate buffered saline (saturated solutions, 25° C., 7 days, HPLC); type: physicochemical; conditions: for Solubility Fold Increase: Example 6 over IRM2; for solubility at 7 days: thermodynamic from solid
# Protocol: The solubility of IRM2 and the IRM-polymer complex exemplified in Example 6 was determined in normal saline and phosphate buffered saline (PBS) at pH 7.4. Each compound was added to each medium until saturation had been reached. Vials containing the saturated solutions were capped and placed into a shaking water bath at 25° C. After 7 days the saturated solutions were filtered and analyzed for compound content on an HPLC using a Zorbax Bonus-RP 150×4.6 mm 5 μm particle size column. IRM2 was eluted with a 25:75 ratio of 0.05% trifuoro-acetic acid (TFA) in Acetonitrile to 0.1% TFA in water. Example 6 was eluted with a 10:90 ratio of 0.05% TFA in Acetonitrile to 0.1% TFA in water for three minutes, gradient to a 75:25 ratio of 0.05% TFA in Acetonitrile to 0.1% TFA in water for seven minutes and held at the 75:25 ratio for eight minutes. All HPLC runs were set at a flow rate of 1 mL/min, 20 μL injection volume, and a 254 nm UV detection wavelength. Quantitation was performed against external standards. Results are shown in Table 5 expressed in millimolar (mM) and solubility fold increase of Example 6 over IRM2.
# [2] = tested on: Peripheral blood mononuclear cells (PBMC); test: Cytokine induction in an in vitro human blood cell system (IFN-α and TNF-α secreted into culture media); type: cell-based; conditions: 18 to 24 hours; for Minimum Effective Concentration (µM) IFN-α: lowest tested concentration inducing IFN-α over fixed level (usually 20 pg/mL); for Minimum Effective Concentration (µM) TNF: lowest tested concentration inducing TNF-α over fixed level (usually 40 pg/mL)
# Excerpt: An in vitro human blood cell system is used to assess cytokine induction. Activity is based on the measurement of interferon (α) and tumor necrosis factor (α) (IFN-α and TNF-α, respectively) secreted into culture media as described by Testerman et. al. in “Cytokine Induction by the Immunomodulators Imiquimod and S-27609,” Journal of Leukocyte Biology, 58, 365-372 (September, 1995).
# Whole blood from healthy human donors is collected by venipuncture into vacutainer tubes or syringes containing EDTA. Peripheral blood mononuclear cells (PBMC) are separated from whole blood by density gradient centrifugation using HISTOPAQUE-1077 (Sigma, St. Louis, Mo.) or Ficoll-Paque Plus (Amersham Biosciences Piscataway, N.J.). Blood is diluted 1:1 with Dulbecco's Phosphate Buffered Saline (DPBS) or Hank's Balanced Salts Solution (HBSS). Alternately, whole blood is placed in Accuspin (Sigma) or LeucoSep (Greiner Bio-One, Inc., Longwood, Fla.) centrifuge frit tubes containing density gradient medium. The PBMC layer is collected and washed twice with DPBS or HBSS and re-suspended at 4×10^6 cells/mL in RPMI complete. The PBMC suspension is added to 96 well flat bottom sterile tissue culture plates containing an equal volume of RPMI complete media containing test compound.
# The compounds are solubilized in dimethyl sulfoxide (DMSO). The DMSO concentration should not exceed a final concentration of 1% for addition to the culture wells. The compounds are generally tested at concentrations ranging from 30-0.014 μM. Controls include cell samples with media only, cell samples with DMSO only (no compound), and cell samples with reference compound. […]
# Following incubation the plates are centrifuged for 10 minutes at 1000 rpm (approximately 200×g) at 4° C. […] The samples are analyzed for IFN-α by ELISA and for TNF-α by IGEN/BioVeris Assay.
# IFN-α concentration is determined with a human multi-subtype calorimetric sandwich ELISA (Catalog Number 41105) from PBL Biomedical Laboratories, Piscataway, N.J. Results are expressed in pg/mL.
# The TNF-α concentration is determined by ORIGEN M-Series Immunoassay and read on an IGEN M-8 analyzer from BioVeris Corporation, formerly known as IGEN International, Gaithersburg, Md. […]
# Analysis of the data has two steps. First, the greater of the mean DMSO (DMSO control wells) or the experimental background (usually 20 pg/mL for IFN-α and 40 pg/mL for TNF-α) is subtracted from each reading. If any negative values result from background subtraction, the reading is reported as
# “*”, and is noted as not reliably detectable. […] The adjustment ratio is the area of the reference compound in the new experiment divided by the expected area of the reference compound based on the past 61 experiments (unadjusted readings). […]
# [3] = Liberation of IRM1 from IRM-polymer complex in buffered saline at 37° C., measured by HPLC; type: physicochemical; conditions: 0.1 mg/ml
# Protocol: Samples were placed in a thermostated autosampler with the temperature controlled at 37° C. Samples were injected periodically over the course of the experiment and the % of IRM1 liberated was measured by an HPLC system equipped with a thermostatted autosampler set at 37° C. and a Zorbax SB C18, (3.0×150 mm), 3.5 μm particle size column with a column temperature of 40° C. Samples were eluted with a mobile phase of 1% acetic acid in water and methanol. The mobile phase was run at a ratio of 55:45 of 1% acetic acid in water to methanol for five minutes, gradient to 5:95 for ten minutes, held at 5:95 for five minutes, gradient to 55:45 in less than a minute, and held at 55:45 for ten minutes. All HPLC runs were set at a flow rate of 0.5 mL/min, 20 μL injection volume, and a 254 nm UV detection wavelength. The % IRM1 was determined by normalizing the IRM1 peak area by the total peak area of the chromatogram.
# [4] = normal saline, saline or isotonic, Saline, 25° C.
smiles,measurement,setting,value
CCCCc1nc2c(N)nc3ccccc3c2n1CCCCNC(=O)CCOCCOCCOCCOCCOCCOCCOCCOCCOCCOCCOCCOCCOCCOCCOCCOCCOCCOCCOCCOCCOCCOCCOCCOCCOCCOCCOCCOCCOCCOCCOCCOCCOCCOCCOCCOCCOCCOCCOCCOCCOCCOCCOCCOCCOCCOC [Example 6],Solubility Fold Increase,"[1]; Phosphate Buffered Saline, pH 7.4",75.97
same,Solubility Fold Increase,[1]; Saline,142.50
same,solubility at 7 days,"[1]; aqueous buffer, Phosphate Buffered Saline, pH 7.4, 25° C.",5590 µM
same,solubility at 7 days,[1]; [4],5970 µM
same,Minimum Effective Concentration (µM) IFN-α,[2],30 µM
same,Minimum Effective Concentration (µM) TNF,[2],> 30 µM
CCOCc1nc2c(NC(=O)CCOCCOCCOCCOCCOCCOCCOCCOCCOCCOCCOCCOCCOCCOCCOCCOCCOCCOCCOCCOCCOCCOCCOCCOCCOCCOCCOCCOCCOCCOCCOCCOCCOCCOCCOCCOCCOCCOCCOCCOCCOCCOCCOCCOCCOCCOC)nc3ccccc3c2n1CC(C)(C)O [Example 7],Minimum Effective Concentration (µM) IFN-α,[2],3.33 µM
same,Minimum Effective Concentration (µM) TNF,[2],30 µM
same,% IRM1,"[3]; Citrate Buffered Saline, pH 4, 37° C., time 0 hr",2.9%
same,% IRM1,"[3]; Citrate Buffered Saline, pH 4, 37° C., time 6 hr",5.7%
same,% IRM1,"[3]; Citrate Buffered Saline, pH 4, 37° C., time 10 hr",7.4%
same,% IRM1,"[3]; Citrate Buffered Saline, pH 4, 37° C., time 13 hr",9.4%
same,% IRM1,"[3]; Citrate Buffered Saline, pH 4, 37° C., time 17 hr",10.6%
same,% IRM1,"[3]; Citrate Buffered Saline, pH 4, 37° C., time 20 hr",12.1%
same,% IRM1,"[3]; Citrate Buffered Saline, pH 4, 37° C., time 23 hr",13.0%
same,% IRM1,"[3]; Citrate Buffered Saline, pH 4, 37° C., time 28 hr",16.5%
same,% IRM1,"[3]; Citrate Buffered Saline, pH 4, 37° C., time 30 hr",17.1%
same,% IRM1,"[3]; Phosphate Buffered Saline, pH 7.4, 37° C., time 1 hr",1.3%
same,% IRM1,"[3]; Phosphate Buffered Saline, pH 7.4, 37° C., time 5 hr",1.5%
same,% IRM1,"[3]; Phosphate Buffered Saline, pH 7.4, 37° C., time 10 hr",1.7%
same,% IRM1,"[3]; Phosphate Buffered Saline, pH 7.4, 37° C., time 13 hr",1.8%
same,% IRM1,"[3]; Phosphate Buffered Saline, pH 7.4, 37° C., time 18 hr",1.9%
same,% IRM1,"[3]; Phosphate Buffered Saline, pH 7.4, 37° C., time 20 hr",2.1%
same,% IRM1,"[3]; Phosphate Buffered Saline, pH 7.4, 37° C., time 23 hr",2.1%
same,% IRM1,"[3]; Phosphate Buffered Saline, pH 7.4, 37° C., time 27 hr",2.3%
same,% IRM1,"[3]; Phosphate Buffered Saline, pH 7.4, 37° C., time 30 hr",2.4%
"CCCCc1nc2c(N)nc3ccccc3c2n1CCCCNC(C)=O [IRM 2, N-[4-(4-Amino-2-butyl-1H-imidazo[4,5-c]quinolin-1-yl)butyl]acetamide, reference compound]",solubility at 7 days,[1]; [4],40 µM
same,solubility at 7 days,"[1]; phosphate buffered saline (PBS), aqueous buffer, Phosphate Buffered Saline, pH 7.4, 25° C.",70 µM
